Results on four molecules are retold here after publication PMC10904395, “The Deinococcus protease PprI senses DNA damage by directly interacting with single-stranded DNA”.

Data set [1] has as its target T1, DG-PprI (IrrE) (Deinococcus geothermalis, UniProt Q1J1D6 1-289).
T1 sequence: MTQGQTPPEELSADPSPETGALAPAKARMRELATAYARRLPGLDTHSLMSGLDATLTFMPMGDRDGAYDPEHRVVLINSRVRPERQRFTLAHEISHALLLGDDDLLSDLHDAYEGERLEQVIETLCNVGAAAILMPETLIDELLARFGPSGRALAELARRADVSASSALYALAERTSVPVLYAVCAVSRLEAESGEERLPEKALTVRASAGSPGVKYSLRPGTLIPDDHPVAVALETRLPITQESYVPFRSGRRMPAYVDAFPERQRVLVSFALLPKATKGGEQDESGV
The data set can be described thus: EMSA; 1 or 2 uM protein, 0.1 uM RNA; EMSA: 150 mM NaCl, 20 mM Tris-HCl pH 8.0, 0.1 mg/ml BSA, 0.1 uM FAM-labeled nucleic acid, 0/1/2 uM protein, room temperature 30 min, 10% native PAGE in 1x TB. To be noted: protein: recombinant; tags: tag removed; label: 5' FAM. (Mobility shift assays separate free from complexed probe on a gel.)

Data set [2] has as its target T1, DG-PprI (IrrE). The data set can be described thus: EMSA; 1 or 2 uM protein, 0.1 uM DNA; EMSA: 150 mM NaCl, 20 mM Tris-HCl pH 8.0, 0.1 mg/ml BSA, 0.1 uM FAM-labeled nucleic acid, 0/1/2 uM protein, room temperature 30 min, 10% native PAGE in 1x TB. Conditions: protein: recombinant, tags: tag removed.
The target of data set [3] is T1, DG-PprI (IrrE). Description: X-ray crystallography; Mn2+; 2.2 A; PprI dimer in asymmetric unit; EMSA: 150 mM NaCl, 20 mM Tris-HCl pH 8.0, 0.1 mg/ml BSA, 0.1 uM FAM-labeled nucleic acid, 0/1/2 uM protein, room temperature 30 min, 10% native PAGE in 1x TB. Conditions: protein: recombinant; tags: tag removed.

On to CGCUCUUCGCCAUUCUCUUGAAGUUUCAAACUUGG (ssRNA) [35nt RNA], for which, in the data set with DG-PprI (IrrE) [1], the binding result is recorded as “no binding”.
Consider CGCTCTTCGCCATTCTCTTGAAGTTTCAAACTTGG (ssDNA) [35nt ssDNA], for which the binding result with DG-PprI (IrrE) [2] (label: 5' FAM) is recorded as “binds”.

B1: 35 bp dsDNA (dsDNA)
DNA 1: CGCTCTTCGCCATTCTCTTGAAGTTTCAAACTTGG
DNA 2: CCAAGTTTGAAACTTCAAGAGAATGGCGAAGAGCG
Turning to B1, in the data set with DG-PprI (IrrE) [2] (label: 5' FAM on F strand, blunt), the binding result was “no binding”.
For the molecule TCATGAGCAGTTTTTTTTTTTTTTTTTTT (ssDNA) [29nt ssDNA (co-crystal)], in the data set with DG-PprI (IrrE) [3], the binding result is on record as “binds”.
